Results as given in article PMC12311017.

Target: USP1/UAF1 (USP1 res. 21-785, G670A + G671A, with UAF1 res. 9-677) (UniProt O94782)
Assay: global kinetic model

UniProt O94782, sequence (O94782 21-785 G670A/G671A, chain 1 of 2): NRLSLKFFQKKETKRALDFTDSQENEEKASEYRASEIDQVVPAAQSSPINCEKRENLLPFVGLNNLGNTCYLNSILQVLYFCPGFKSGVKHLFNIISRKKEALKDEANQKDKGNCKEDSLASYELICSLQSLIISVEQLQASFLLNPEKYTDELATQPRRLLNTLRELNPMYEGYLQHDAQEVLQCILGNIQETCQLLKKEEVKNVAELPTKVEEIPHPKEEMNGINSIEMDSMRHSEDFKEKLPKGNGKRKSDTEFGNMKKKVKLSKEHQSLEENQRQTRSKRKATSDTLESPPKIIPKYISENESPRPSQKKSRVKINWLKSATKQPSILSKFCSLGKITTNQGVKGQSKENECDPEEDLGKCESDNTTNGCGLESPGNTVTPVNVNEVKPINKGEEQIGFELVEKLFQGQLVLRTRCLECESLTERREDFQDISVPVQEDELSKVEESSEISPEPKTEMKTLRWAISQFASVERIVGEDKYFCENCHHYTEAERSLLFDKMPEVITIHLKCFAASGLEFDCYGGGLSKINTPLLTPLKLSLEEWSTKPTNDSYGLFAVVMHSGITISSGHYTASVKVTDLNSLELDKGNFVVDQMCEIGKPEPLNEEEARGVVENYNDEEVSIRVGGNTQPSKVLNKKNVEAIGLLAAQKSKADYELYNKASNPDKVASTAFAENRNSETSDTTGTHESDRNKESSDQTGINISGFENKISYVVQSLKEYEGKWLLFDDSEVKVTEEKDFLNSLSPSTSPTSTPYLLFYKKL
UniProt O94782, sequence (Q8TAF3 9-677, chain 2 of 2, further chain): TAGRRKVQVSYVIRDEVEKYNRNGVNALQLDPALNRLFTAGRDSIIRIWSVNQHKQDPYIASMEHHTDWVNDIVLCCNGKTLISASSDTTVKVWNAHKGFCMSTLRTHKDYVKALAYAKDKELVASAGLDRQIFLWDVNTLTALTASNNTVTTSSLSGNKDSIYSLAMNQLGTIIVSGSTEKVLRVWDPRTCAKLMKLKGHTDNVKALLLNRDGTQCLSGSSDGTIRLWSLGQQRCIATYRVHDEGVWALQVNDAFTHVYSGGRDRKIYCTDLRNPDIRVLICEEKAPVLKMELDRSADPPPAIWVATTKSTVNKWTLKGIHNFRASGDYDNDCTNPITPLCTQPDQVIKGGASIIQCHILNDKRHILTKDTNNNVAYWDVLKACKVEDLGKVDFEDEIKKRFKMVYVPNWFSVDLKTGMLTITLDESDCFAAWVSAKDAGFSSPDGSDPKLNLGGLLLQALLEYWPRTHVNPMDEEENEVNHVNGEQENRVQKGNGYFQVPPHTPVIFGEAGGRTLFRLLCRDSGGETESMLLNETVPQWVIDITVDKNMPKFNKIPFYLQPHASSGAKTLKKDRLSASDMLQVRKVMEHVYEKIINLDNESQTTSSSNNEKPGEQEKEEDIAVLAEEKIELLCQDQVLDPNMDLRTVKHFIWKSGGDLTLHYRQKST

Question: For “K63-linked diubiquitinated PCNA (from UniProt P12004 1-261; P0CG47 1-76; P0CG47 1-76) (complex)”, which koff is on record?
Answer: 1240 s⁻¹
